Reference: publication PMC6341091

B1: FOXP3: TMG (protein)
parent chain: MPNPRPAKPMAPSLALGPSPGVLPSWKTAPKGSELLGTRGSGGPFQGRDLRSGAHTSSSLNPLPPSQLQLPTVPLVMVAPSGARLGPSPHLQALLQDRPHFMHQLSTVDAHAQTPVLQVRPLDNPAMISLPPPSAATGVFSLKARPGLPPGINVASLEWVSREPALLCTFPRSGTPRKDSNLLAAPQGSYPLLANGVCKWPGCEKVFEEPEEFLKHCQADHLLDEKGKAQCLLQREVVQSLEQQLELEKEKLGAMQAHLAGKMALAKAPSVASMDKSSCCIVATSTQGSVLPAWSAPREAPDGGLFAVRRHLWGSHGNSSFPEFFHNMDYFKYHNMRPPFTYATLIRWAILEAPERQRTLNEIYHWFTRMFAYFRNHPATWKNAIRHNLSLHKCFVRVESEKGAVWTVDEFEFRKKRSQRPNKCSNPCP
B2: FOXP3: OGT overexpression (protein)
parent chain: B1 parent chain
B3: FOXP3: OGA overexpression (protein)
parent chain: B1 parent chain
B4: FOXP3: FOXP3-5A (protein)
parent chain: B1 parent chain
B5: FOXP3: ST045849 (protein)
parent chain: B1 parent chain

Legend:
[1] = CHX chase, HEK 293, western blot; conditions: control: no OGT/OGA overexpression or no inhibitor
[2] = western blot of total FOXP3, HEK 293; conditions: control: no OGT/OGA overexpression or no inhibitor
[3] = not described in main text (Supplementary Fig. 2F); conditions: glycan lost; control: wild-type FOXP3
[4] = CHX chase, HEK 293, OGT overexpression, western blot; conditions: glycan lost; control: wild-type FOXP3
[5] = retroviral transduction of CD4+CD25- T cells, FOXP3 MFI; conditions: glycan lost; control: wild-type FOXP3

Protein	degradation_or_half_life ([1]; glycan gained)	expression_or_secretion ([2]; glycan gained)	degradation_or_half_life ([1]; glycan lost)	expression_or_secretion ([2]; glycan lost)	other results
B1	increases	increases			
B2	increases	increases			
B3			decreases	decreases	
B4					other: OGT-induced transcriptional suppression activity [3]: abolishes; degradation_or_half_life [4]: decreases; expression_or_secretion [5]: decreases
B5			decreases	decreases	
